From US20180066058A1 (published 2018)
Changes are numbered by the printed parent chain. Each block holds one binder with its values, some of them ahead of it.

How the values were obtained:
[1] = target: T1, human ICOS-mFc (Chimerigen) (human, UniProt Q9Y6W8 21-140); assay: HTRF neutralisation of Alexa 647 human B7-H2 binding to human ICOS-mFc; human IgG4.PE table; n = 1
T1 construct: also called human ICOS receptor; human ICOS Receptor; not shown: mouse Fc of the bought construct
T1 sequence: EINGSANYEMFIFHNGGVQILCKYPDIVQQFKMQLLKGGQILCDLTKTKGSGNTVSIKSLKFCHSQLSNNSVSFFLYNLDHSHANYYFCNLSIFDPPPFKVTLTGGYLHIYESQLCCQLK
Method: (§1) 5 μl of ICOS receptor (human ICOS-mFc, 20 nM, 5 nM final or mouse ICOS-mFc 4 nM, 1 nM final (Chimerigen)) was added to required wells. Plate was incubated for 1 hr at room temperature (RT).
(§2) Finally, 5 μl of anti-mouse IgG donor mAb (Southern Biotech) labelled with europium cryptate (Cis Bio), 40 nM, 10 nM final was added to each well and the assay was left in the dark at RT to incubate for a further 2 hours. After incubation, assay was read on Envision plate reader (Perkin Elmer) using a standard HTRF protocol. […] Titration curves and IC50 values [M] were plotted using Graphpad (Prism). IC50 values were calculated by first transforming the data using equation X=Log(X). The transformed data was then fitted using nonlinear regression, using fitting algorithm, log (inhibitor) vs. response—variable slope (four parameters).

[2] = target: T2, Human ICOS on cells (human, UniProt Q9Y6W8 21-199); assay: cell-based or functional assay
T2 sequence: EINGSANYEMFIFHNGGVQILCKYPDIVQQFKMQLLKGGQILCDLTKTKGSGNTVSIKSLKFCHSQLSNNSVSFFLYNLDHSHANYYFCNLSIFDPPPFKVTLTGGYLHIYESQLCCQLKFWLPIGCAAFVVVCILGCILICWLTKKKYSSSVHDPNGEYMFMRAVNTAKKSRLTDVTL

[3] = target: T2, Human ICOS on cells; assay: cell-based or functional assay; remark: listed apart in the source
[4] = target: T2, Human ICOS on cells; assay: flow cytometry on activated human pan T cells (row Human), first donor column
[5] = target: T2, Human ICOS on cells; assay: flow cytometry on activated human pan T cells (row Human), second donor column
[6] = target: T3, Cynomolgus ICOS on activated cynomolgus T cells (cynomolgus, UniProt Q9Y6W8 21-195 (human entry)); assay: flow cytometry, AF647 pre-labelled hIgG1 on activated cynomolgus pan T cells, donor 1
T3 construct: also called NHP ICOS
T3 chain: T2 sequence with T54K, H81R, A129T, L136F, S152T, D176G, V177T, L179P
Method: (§3) PBMC from whole blood of 2 Mauritian cynomolgus macaques (Wickham Laboratories) were isolated by gradient centrifugation and cultured for 3 days with CD2/CD3/CD28 MACSiBeads (Miltenyi) to induce ICOS expression on their surface. […] Cells were also labelled with V450-CD3 to assess staining on T-cell subsets. Stained cells were run on Attune (Thermofisher) and staining intensity was presented as mean fluorescence intensity (MFI). EC50 was determined using GraphPad Prism.

[7] = target: T3, Cynomolgus ICOS on activated cynomolgus …; assay: flow cytometry, AF647 pre-labelled hIgG1 on activated cynomolgus pan T cells, donor 2
Method: as §3

[8] = target: T1, human ICOS-mFc (Chimerigen); assay: HTRF neutralisation of Alexa 647 human B7-H2 binding to human ICOS-mFc; human IgG1; mean, n = 4
Method: as §1, §2

[9] = target: T4, mouse ICOS-mFc (Chimerigen) (mouse, UniProt Q9WVS0 21-141, limits assumed); assay: HTRF neutralisation of Alexa 647 mouse B7-H2 binding to mouse ICOS-mFc; human IgG1; mean, n = 3
T4 construct: also called mouse ICOS receptor; mouse ICOS Receptor; not shown: mouse Fc of the bought construct
T4 sequence: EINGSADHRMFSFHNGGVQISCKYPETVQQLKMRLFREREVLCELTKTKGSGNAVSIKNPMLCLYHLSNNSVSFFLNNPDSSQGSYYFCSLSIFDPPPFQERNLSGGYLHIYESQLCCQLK
Method: as §1, §2

[10] = target: T2, Human ICOS on cells; assay: flow cytometry on activated primary human pan T cells; indirect binding assay; reference STIM001 hIgG1
Method: (§4) Pan T-cells (CD3 cells) were isolated and cultured for 3 days with CD3/CD28 dynabeads (Thermofisher) to induce ICOS expression on their surface. […] Stained cells were ran on the Attune and staining intensity was presented as Mean of fluorescence intensity (MFI). EC50 was determined using GraphPad Prism.

[11] = target: T2, Human ICOS on cells; assay: flow cytometry on activated primary human pan T cells; naked hIgG1 detected with AF647 goat anti-human Fc
Method: as §4

[12] = target: T1, human ICOS-mFc (Chimerigen); assay: HTRF neutralisation of Alexa 647 human B7-H2 binding to human ICOS-mFc; human IgG4.PE; mean, n = 3
Method: as §1, §2

[13] = target: T4, mouse ICOS-mFc (Chimerigen); assay: HTRF neutralisation of Alexa 647 mouse B7-H2 binding to mouse ICOS-mFc; human IgG4.PE; mean, n = 3
Method: as §1, §2

[14] = target: T5, Human ICOS extracellular domain fused to human Fc (human, UniProt Q9Y6W8 21-140); assay: SPR (ProteOn XPR36), Fc-tagged ICOS captured on anti-human IgG, Fab analyte, 25 C
T5 construct: Dimeric protein made in house from NCBI NP_036224.1; also called hICOS; hICOS Fc; not shown: human Fc region
T5 sequence: T1 sequence
Method: Fab affinities of the ICOS leads were generated by SPR using the ProteOn XPR3 6 (BioRad). An anti-human IgG capture surface was created on a GLC biosensor chip by primary amine coupling, immobilising three anti-human IgG antibodies (Jackson Labs 109-005-008, 109-006-008 and 309-006-008). […] Binding sensorgrams were double referenced using a buffer injection (i.e. 0 nM), and the data was fitted to the 1:1 model inherent to the ProteOn XPR36 analysis software. The assay was run at 25° C. and using HBS-EP as running buffer.

[15] = target: T5, Human ICOS extracellular domain fused …; assay: SPR (ProteOn XPR36), human ICOS ECD-Fc captured, Fab analyte, pH 5.5, 37 C; poor fit to 1:1 model
Method: (§5) In addition, a comparison was performed of antibody:antigen binding affinity at different pH values. As before, the dimeric human ICOS protein, presented as the extracellular domain of ICOS fused to a human Fc region, was captured on the anti-human Fc capture surface created using the 3 antibody cocktail, immobilised on the GLC biosensor chip by primary amine coupling. SPR analysis of recombinantly expressed anti-ICOS Fabs was carried out on the ProteOn XPR36 Array system (Biorad). The Fab fragments were used as analyte to generate binding sensorgrams, which were double referenced with a buffer injection (i.e., 0 nM). The subsequent referenced sensorgrams were fitted to the 1:1 model inherent to the ProteOn analysis software. […] Data were fitted to the 1:1 model.

[16] = target: T5, Human ICOS extracellular domain fused …; assay: SPR (ProteOn XPR36), human ICOS ECD-Fc captured, Fab analyte, pH 7.4, 37 C; poor fit to 1:1 model
Method: as §5

- IC50 [1]: 0.8 nM
B1: STIM006 human IgG4.PE (antibody, V domains shown)
VH: QVQLVESGGGLVKPGGSLRLSCAASGFTFSDYFMSWIRQAPGKGLEWISYISSSGSTIYYADSVRGRFTISRDNAKYSLYLQMNSLRSEDTAVYYCARDHYDGSGIYPLYYYYGLDVWGQGTTVTVSS
VL: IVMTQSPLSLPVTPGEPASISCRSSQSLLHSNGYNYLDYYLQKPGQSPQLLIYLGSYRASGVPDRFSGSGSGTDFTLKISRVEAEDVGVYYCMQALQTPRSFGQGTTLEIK

- IC50 [12]: 161 nM
- IC50 [13]: 30 nM
B3: STIM004 human IgG4.PE (antibody, V domains shown)
VH: EVQLVESGGGVVRPGGSLRLSCAASGLTFDDYGMSWVRQVPGKGLEWVSGINWNGDNTDYADSVKGRFTISRDNAKNSLYLQMNSLRAEDTALYYCARDYYGSGSYYNVPFDYWGQGTLVTVSS
VL: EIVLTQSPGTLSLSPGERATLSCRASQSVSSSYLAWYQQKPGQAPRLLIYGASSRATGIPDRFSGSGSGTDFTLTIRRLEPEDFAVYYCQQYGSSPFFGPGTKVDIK
notes: Human IgG4.PE (null-effector) format

The remaining lines, values behind:

B2: STIM003 human IgG1 (antibody, V domains shown)
VH: B3 VH with A23V, L27V, V40A, D56G, N57D, A61S, Y100F, N108H, T118I
VL: EIVLTQSPGTLSLSPGERATLSCRASQSVSRSYLAWYQQKRGQAPRLLIYGASSRATGIPDRFSGDGSGTDFTLSISRLEPEDFAVYYCHQYDMSPFTFGPGTKVDIKR
notes: Human IgG1 format; Conjugated with AF647 in the direct staining assays, coupled to beads or plates in the MJ cell assays; also called STIM003 (hIgG1); STIM003 hIgG1
- EC50 (Molar unit), NK primary cell ADCC assay on MJ cells, 2 hour time point, Donor 1 [2]: 0.00233 nM
- EC50 (Molar unit), NK primary cell ADCC assay on MJ cells, 2 hour time point, Donor 2 [2]: 0.0358 nM
- EC50 (Molar unit), NK primary cell ADCC assay on MJ cells, 2 hour time point, Donor 3 [2]: 0.101 nM
- EC50 (Molar unit), NK primary cell ADCC assay on ICOS-transfected CCRF-CEM cells, 4 hour time point, Donor 4 [3]: ~0.003 nM
- EC50 (Molar unit), NK primary cell ADCC assay on ICOS-transfected CCRF-CEM cells, 4 hour time point, Donor 5 [3]: 0.000895 nM
- EC50 (Molar unit), NK primary cell ADCC assay on ICOS-transfected CCRF-CEM cells, 4 hour time point, Donor 6 [3]: 0.00103 nM
- EC50 [4]: 2.29 nM
- EC50 [5]: 0.895 nM
- EC50 [6]: 4.58 nM
- EC50 [7]: 4.83 nM
- IC50 [8]: 1.3 nM
- IC50 [9]: 0.1 nM
- fold lower EC50 than STIM001 [10]: ~100 fold
- EC50 [11]: 0.148 nM

B4: STIM002 Fab (Fab, V domains shown)
VH: QVQLVQSGGEVKKPGASVKVSCKASGYTFTSYGFSWVRQAPGQGLEWMGWISAYNGNTNYAQKLQGRVTMTTDTSTSTAYMELRSLRSDDTAVYYCARSTYFYGSGTLYGMDVWGQGTTVTVSS
VL: DIVMTQSPLSLPVTPGEPASISCRSSQSLLHSDGYNYLDWYLQKPGQSPQLLIYLGSTRASGFPDRFSGSGSGTDFTLKISRVEAEDVGVYYCMQALQTPLSFGQGTKLEIK
notes: Recombinantly expressed purified Fab
- Kd [14]: 1070 nM
- Kd [15]: 4.17 nM
- Kd [16]: 223 nM
